Results taken from publication PMC9723800, “Structural and dynamic basis of DNA capture and translocation by mitochondrial Twinkle helicase” (Nucleic Acids Research, 2022).
Residue numbers refer to the chain shown, from its start. Values joined by “and” are separate entries in the source; they are usually repeats but may differ in a detail not shown here. Equal values may be shown once. One block for each molecule: values may come before it.

How the values were obtained:
LcTwinkle [1] = biological target: T1, LcTwinkle (Lates calcarifer, UniProt A0A4W6C5C5, E452Q); assay: cryo-EM structure of LcTwinkle-ssDNA-ATP complex, […] Å; type: binding; conditions: 1 mM ATP, 2 mM MgCl2, pH 8.0, five ATP at the subunit interfaces, one Mg2+ each
T1 construct: gene TWNK; shorter variant (primase-like NTD + helicase CTD), synthesized gene, modified pET28a, N-terminal His tag cut by PreScission; E. coli BL21(DE3); homo-hexamer (also heptamer)
T1 sequence (A0A4W6C5C5 128-683 E452Q): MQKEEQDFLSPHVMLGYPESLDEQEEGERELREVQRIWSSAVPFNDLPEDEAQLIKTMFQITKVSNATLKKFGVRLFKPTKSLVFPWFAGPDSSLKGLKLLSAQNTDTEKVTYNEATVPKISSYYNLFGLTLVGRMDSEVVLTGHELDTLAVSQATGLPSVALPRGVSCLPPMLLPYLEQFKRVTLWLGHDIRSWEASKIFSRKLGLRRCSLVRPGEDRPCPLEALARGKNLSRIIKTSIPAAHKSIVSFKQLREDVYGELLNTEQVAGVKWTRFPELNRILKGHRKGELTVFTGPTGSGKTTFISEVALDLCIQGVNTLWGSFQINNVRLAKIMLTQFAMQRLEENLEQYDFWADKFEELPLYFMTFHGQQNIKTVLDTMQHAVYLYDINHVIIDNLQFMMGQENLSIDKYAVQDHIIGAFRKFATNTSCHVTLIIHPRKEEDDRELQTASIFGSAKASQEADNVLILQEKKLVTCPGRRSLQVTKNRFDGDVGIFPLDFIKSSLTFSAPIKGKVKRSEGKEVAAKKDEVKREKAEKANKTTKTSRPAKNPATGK

LcTwinkle [2] = biological target: T2, LcTwinkle (Lates calcarifer, UniProt A0A4W6C5C5); assay: [gamma-32P]ATP TLC ATPase assay, Michaelis-Menten fit; type: biochemical; conditions: 12 mM MgCl2, 1 uM ssDNA, 150 mM KCl, pH 8.0, 20 °C; labelled compound as tracer
T2 construct: gene TWNK; shorter variant (primase-like NTD + helicase CTD), synthesized gene, modified pET28a, N-terminal His tag cut by PreScission; E. coli BL21(DE3); homo-hexamer (also heptamer)
T2 sequence (A0A4W6C5C5 128-683): T1 sequence (A0A4W6C5C5 128-683 E452Q) with Q325E

[3] = biological target: E325Q LcTwinkle (Lates calcarifer Twinkle helicase, active site mutant) (Lates calcarifer); assay: cryo-EM structure; E325Q LcTwinkle with ssDNA (1:1.5), 1 mM ATP, 2 mM MgCl2, 50 mM Tris pH 8.0, 150 mM KCl, 3 mM DTT; DNA-bound classes (LcTwinkle-DNA 3.5 A, LcTwinkle-DNA2 7.5 A)
[4] = biological target: E325Q LcTwinkle (Lates calcarifer Twinkle helicase, active site mutant) (Lates calcarifer); assay: cryo-EM structure; apo (DNA-free) classes found by 3D classification in the same sample prepared with ssDNA and ATP: LcTwinkle6 and LcTwinkle7 (8.5 A)
[5] = biological target: WT LcTwinkle (Lates calcarifer Twinkle helicase) (Lates calcarifer); assay: negative staining EM; 0.02 mg/ml Twinkle in 50 mM Tris pH 8.0, 150 mM KCl, 3 mM DTT, 1 mM ATP, 2 mM MgCl2, ssDNA at 1:2 relative to hexamers; uranyl acetate; 2D classification
LcTwinkle S456A = biological target: T3, LcTwinkle S456A (Lates calcarifer, UniProt A0A4W6C5C5 128-683, S583A); assay: fluorescence anisotropy; 0.5 mM ATP, 1 mM Mg2+; FA: 25 mM Tris-HCl pH 8.0, 150 mM KCl, 0.5 mM ATP, 1 mM MgCl2, 20 nM Cy5-ssDNA, temperature not stated; SEC/cryo-EM: 50 mM Tris pH 8.0, 150 mM KCl, 3 mM DTT, 1; conditions: protein: recombinant; tags: N-terminal His tag, PreScission-cleaved; chain copies: 6; label: 5'-Cy5; single strand
T3 sequence: T1 sequence (A0A4W6C5C5 128-683 E452Q) with Q325E, S456A

LcTwinkle H438A = biological target: T4, LcTwinkle H438A (Lates calcarifer, UniProt A0A4W6C5C5 128-683, H565A); assay: as above; conditions: protein: recombinant; tags: N-terminal His tag, PreScission-cleaved; chain copies: 6; label: 5'-Cy5; single strand
T4 sequence: T1 sequence (A0A4W6C5C5 128-683 E452Q) with Q325E, H438A

LcTwinkle R489A = biological target: T5, LcTwinkle R489A (Lates calcarifer, UniProt A0A4W6C5C5 128-683, R616A); assay: as above; conditions: protein: recombinant; tags: N-terminal His tag, PreScission-cleaved; chain copies: 6; label: 5'-Cy5; single strand
T5 sequence: T1 sequence (A0A4W6C5C5 128-683 E452Q) with Q325E, R489A

LcTwinkle R440A = biological target: T6, LcTwinkle R440A (Lates calcarifer, UniProt A0A4W6C5C5 128-683, R567A); assay: as above; conditions: protein: recombinant; tags: N-terminal His tag, PreScission-cleaved; chain copies: 6; label: 5'-Cy5; single strand
T6 sequence: T1 sequence (A0A4W6C5C5 128-683 E452Q) with Q325E, R440A

LcTwinkle E325Q = biological target: T7, LcTwinkle E325Q (Lates calcarifer, UniProt A0A4W6C5C5 128-683, E452Q); assay: cryo-EM structure (3.5 A); 1 mM ATP, 2 mM Mg2+; FA: 25 mM Tris-HCl pH 8.0, 150 mM KCl, 0.5 mM ATP, 1 mM MgCl2, 20 nM Cy5-ssDNA, temperature not stated; SEC/cryo-EM: 50 mM Tris pH 8.0, 150 mM KCl, 3 mM DTT, 1; conditions: protein: recombinant; tags: N-terminal His tag, PreScission-cleaved; chain copies: 6; single strand
T7 sequence: T1 sequence (A0A4W6C5C5 128-683 E452Q)

Molecule: Nc1ncnc2c1ncn2[C@@H]1O[C@H](COP(=O)(O)OP(=O)(O)OP(=O)(O)O)[C@@H](O)[C@H]1O [ATP]
- cryo-EM structure of LcTwinkle-ssDNA-ATP complex, 3.5 Å (LcTwinkle [1]): ATPase sites are located at each of the subunit interfaces (Figure 2A), and five ATP molecules
- KM (LcTwinkle [2]): The data were fitted to Michaelis–Menten equation with GraphPad

- stoichiometry N [3]: 6
- stoichiometry N [4]: 6 and 7
Molecule: E325Q LcTwinkle (Lates calcarifer Twinkle helicase, active site mutant) (enzyme)

- stoichiometry N [5]: 6 and 7
Molecule: WT LcTwinkle (Lates calcarifer Twinkle helicase) (enzyme)

Molecule: GGATTATTTACATTGGCAGATTCACC (ssDNA) [Cy5-ssDNA]
- binding result (LcTwinkle S456A): no binding
- binding result (LcTwinkle H438A): no binding
- binding result (LcTwinkle R489A): no binding
- binding result (LcTwinkle R440A): no binding

Molecule: TGGTCTTTTTTTTTTTTTTTTTTTTTTTTT (ssDNA) [TGGTC-oligo(dT) ssDNA]
- binding result (LcTwinkle E325Q): binds
